# Substrate: Cc1cc(=O)oc2cc(NC(=O)[C@H](N)CC(C)C)ccc12
# Assay: Steady-state activity assay with Leu-AMC (fluorescence)
# Assay type: biochemical, Pseudomonas aeruginosa
# Settings: other: Leu-AMC varied, 3 mM MnCl2, pH 8.0, 25.0 °C
# Procedure: A BMG Labtech POLARstar Omega plate reader was used for activity assays and kinetic studies involving amino acids conjugated to para-nitroaniline (pNA) (Sigma) or peptides as substrates. Assays were carried out at 25 °C in clear half-area 96-well plates (Greiner Bio-One). The pNA product formed upon PaPepA-mediated bond cleavage strongly absorbs at 405 nm; therefore, initial rates were measured by monitoring the increase in absorbance at 405 nm over time. For kinetic assays investigating Leu-AMC as a substrate, a SpectraMax M2E was used. Reactions were carried out using black half-area 96-well plates with clear bottoms (Greiner Bio-One). Product formation was assessed by monitoring changes in fluorescence, with the excitation wavelength set at 341 nm and emission at 441 nm. The cutoff was 420 nm. PMT gain was set to medium, with six flashes per read. PaPepA was added at a final concentration of 100 nM to start reactions. Calibration curves of pNA concentration vs absorbance and AMC vs fluorescence were constructed, and initial rate values were divided by the slope of these calibration curves to reveal the rate of product formation over time (Table S2).
# For all assays excluding pH dependence curves, buffer conditions were as follows: 100 mM HEPES, 50 mM KCl, and pH 8.0. For assays carried out under pseudo-first-order conditions, one reaction component was fixed and in excess, while the other was varied. If [metal] was varied, [Leu-pNA] was fixed at 2 mM or [Leu-AMC] was fixed at 170 μM. For assays involving variation of aa-pNA or aa-AMC, MnCl2 was added to a final concentration of 3 mM. PaPepA was added at a final concentration of 100 nM in studies containing MnCl2, and to a final concentration of 1 μM in studies containing MgCl2 as the metal cofactor. Table 1 summarizes steady-state parameters described in Scheme 1 and obtained with different substrates.
protein,measurement,value
"PaPepA (Pseudomonas aeruginosa UCBPP-PA14) (protein, GG stays after cleavage) (N); made in house; host or cells: E. coli BL21(DE3)) MEFLVKSVRPETLKTATLVLAVGEGRKLGASAKAVDDATGGAISAVLKRGDLAGKVGQTLLLQSLPNLKAERVLLVGAGKERELGDRQYRKLASAVLSTLKGLAGADAALALGDLAVKGRGAHAKARLLVETLADGLYVFDRYKSQKAEPLKLKKLTLLADKADSAAVEQGSKEAQAIANGMALTRDLGNLPPNVCHPTFLGEQAKGLAKEFKSLKVEVLDEKKLRELGMGSFLAVAQGSDQPPRLIILQYNGAKKDQAPHVLVGKGITFDTGGISLKPGLGMDEMKFDMCGAASVFGTFRAVLELQLPINLVGLLACAENMPSGGATRPGDIVTTMSGQTVEILNTDAEGRLVLCDALTYAERFKPQSVIDIATLTGACIVALGSNTSGLMGNNEALVRQLLKAGEFADDRAWQLPLFDEYQEQLDSPFADIANIGGPKAGTITAGCFLSRFAKKYHWAHLDIAGTAWISGGKDKGATGRPVPLLTQYLLERAK",Km,16 ± 1 µM
same,kcat,0.56 ± 0.01 s⁻¹
same,kcat/Km,35400 ± 3100 M⁻¹ s⁻¹
